T1: human VEGFC (R&D) (human, UniProt P49767 103-227)
T1 construct: also called hVEGFC; recombinant human VEGFC protein
T1 sequence (looked up): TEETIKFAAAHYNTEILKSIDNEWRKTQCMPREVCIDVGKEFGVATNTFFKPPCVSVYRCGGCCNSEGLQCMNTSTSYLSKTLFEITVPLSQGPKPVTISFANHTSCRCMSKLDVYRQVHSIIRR

T2: human Ang2 (Beijing Sino Biological) (human, UniProt O15123 19-496, limits assumed)
T2 construct: Antigen of the BLI and SPR experiments; also called angiopoietin 2; ANGPT2
T2 sequence (looked up): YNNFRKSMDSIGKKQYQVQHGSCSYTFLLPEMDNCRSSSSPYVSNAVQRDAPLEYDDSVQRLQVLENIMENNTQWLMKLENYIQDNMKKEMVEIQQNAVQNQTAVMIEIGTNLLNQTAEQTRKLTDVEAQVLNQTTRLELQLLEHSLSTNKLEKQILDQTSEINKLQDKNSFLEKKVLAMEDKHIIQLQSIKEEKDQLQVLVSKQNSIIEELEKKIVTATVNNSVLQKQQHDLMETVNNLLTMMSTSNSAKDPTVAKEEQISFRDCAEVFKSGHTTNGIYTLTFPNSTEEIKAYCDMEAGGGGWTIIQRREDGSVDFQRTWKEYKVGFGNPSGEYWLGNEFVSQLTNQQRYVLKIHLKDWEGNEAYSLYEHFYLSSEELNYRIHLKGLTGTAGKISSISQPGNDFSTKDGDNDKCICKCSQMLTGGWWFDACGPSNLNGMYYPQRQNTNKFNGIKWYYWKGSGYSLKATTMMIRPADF

B1: IAR044-040 (other)
chain: SDTGRPFVEMYSEIPEIIHMTEGRELVIPCRVTSPNITVTLKKFPLDTLIPDGKRIIWDSRKGFIISNATYKEIGLLTCEATVNGHLYKTNYLTHRQTNTIIDVVLSPSHGIELSVGEKLVLNCTARTELNVGIDFNWEYPSSKHQHKKLVNRDLKTQSGSEMKKFLSTLTIDGVTRSDQGLYTCAASSGLMTKKNSTFVRVHEKEKTHTCPPCPPCGGGGGGGGGGEVQLLESGGGLVQPGGSLRLSCAASGFALDYYAIGWFRQAPGKGLEGVSCISSGEGSTYYADSVKGRFTISRDNSKNTVYLQMNSLRAEDTAVYYCATDSRGDDVACEGLRRNEYDYWGQGTLVTVSSGGGGGGGGGGEVQLVESGGGLVQPGGSLRLSCAASGSSFSPYAMGWYRQAPGKQRELVSATSEGGFTLYADSVKGRFTISRDNSKNTVYLQMNSLRAEDTAVYYCYMHWRGSDPENYWGQGTQVTVSS
notes: Trispecific fusion protein: VEGFA mini-Trap, hinge linker, anti-Ang2 VHH, linker, anti-VEGFC VHH
B2: IAR044-038 (other)
chain: SDTGRPFVEMYSEIPEIIHMTEGRELVIPCRVTSPNITVTLKKFPLDTLIPDGKRIIWDSRKGFIISNATYKEIGLLTCEATVNGHLYKTNYLTHRQTNTIIDVVLSPSHGIELSVGEKLVLNCTARTELNVGIDFNWEYPSSKHQHKKLVNRDLKTQSGSEMKKFLSTLTIDGVTRSDQGLYTCAASSGLMTKKNSTFVRVHEKEPKSSPPCPPCPAPCGGGGGGGGGGEVQLLESGGGLVQPGGSLRLSCAASGFALDYYAIGWFRQAPGKGLEGVSCISSGEGSTYYADSVKGRFTISRDNSKNTVYLQMNSLRAEDTAVYYCATDSRGDDVACEGLRRNEYDYWGQGTLVTVSSGGGGGGGGGGEVQLVESGGGLVQPGGSLRLSCAASGSSFSPYAMGWYRQAPGKQRELVSATSEGGFTLYADSVKGRFTISRDNSKNTVYLQMNSLRAEDTAVYYCYMHWRGSDPENYWGQGTQVTVSS
notes: as for B1
B3: IAR044-030 (other)
chain: EVQLLESGGGLVQPGGSLRLSCAASGFALDYYAIGWFRQAPGKGLEGVSCISSGEGSTYYADSVKGRFTISRDNSKNTVYLQMNSLRAEDTAVYYCATDSRGDDVACEGLRRNEYDYWGQGTLVTVSSGGGGGGGGGGSDTGRPFVEMYSEIPEIIHMTEGRELVIPCRVTSPNITVTLKKFPLDTLIPDGKRIIWDSRKGFIISNATYKEIGLLTCEATVNGHLYKTNYLTHRQTNTIIDVVLSPSHGIELSVGEKLVLNCTARTELNVGIDFNWEYPSSKHQHKKLVNRDLKTQSGSEMKKFLSTLTIDGVTRSDQGLYTCAASSGLMTKKNSTFVRVHEKESKYGPPCPPCPPCGGGGGGGGGGEVQLVESGGGLVQPGGSLRLSCAASGSSFSPYAMGWYRQAPGKQRELVSATSEGGFTLYADSVKGRFTISRDNSKNTVYLQMNSLRAEDTAVYYCYMHWRGSDPENYWGQGTQVTVSS
notes: No Fc; also called anti-VEGFA/VEGFC/Ang2 multi-specific fusion protein
B4: IAR044-032 (other)
chain: EVQLLESGGGLVQPGGSLRLSCAASGFALDYYAIGWFRQAPGKGLEGVSCISSGEGSTYYADSVKGRFTISRDNSKNTVYLQMNSLRAEDTAVYYCATDSRGDDVACEGLRRNEYDYWGQGTLVTVSSGGGGGGGGGGSDTGRPFVEMYSEIPEIIHMTEGRELVIPCRVTSPNITVTLKKFPLDTLIPDGKRIIWDSRKGFIISNATYKEIGLLTCEATVNGHLYKTNYLTHRQTNTIIDVVLSPSHGIELSVGEKLVLNCTARTELNVGIDFNWEYPSSKHQHKKLVNRDLKTQSGSEMKKFLSTLTIDGVTRSDQGLYTCAASSGLMTKKNSTFVRVHEKEKTHTCPPCPPCGGGGGGGGGGEVQLVESGGGLVQPGGSLRLSCAASGSSFSPYAMGWYRQAPGKQRELVSATSEGGFTLYADSVKGRFTISRDNSKNTVYLQMNSLRAEDTAVYYCYMHWRGSDPENYWGQGTQVTVSS
notes: as for B3
B5: IAR044-039 (other)
chain: SDTGRPFVEMYSEIPEIIHMTEGRELVIPCRVTSPNITVTLKKFPLDTLIPDGKRIIWDSRKGFIISNATYKEIGLLTCEATVNGHLYKTNYLTHRQTNTIIDVVLSPSHGIELSVGEKLVLNCTARTELNVGIDFNWEYPSSKHQHKKLVNRDLKTQSGSEMKKFLSTLTIDGVTRSDQGLYTCAASSGLMTKKNSTFVRVHEKESKYGPPCPPCPPCGGGGGGGGGGEVQLLESGGGLVQPGGSLRLSCAASGFALDYYAIGWFRQAPGKGLEGVSCISSGEGSTYYADSVKGRFTISRDNSKNTVYLQMNSLRAEDTAVYYCATDSRGDDVACEGLRRNEYDYWGQGTLVTVSSGGGGGGGGGGEVQLVESGGGLVQPGGSLRLSCAASGSSFSPYAMGWYRQAPGKQRELVSATSEGGFTLYADSVKGRFTISRDNSKNTVYLQMNSLRAEDTAVYYCYMHWRGSDPENYWGQGTQVTVSS
notes: as for B1

We go through five molecules from EP4628512A1 (Innovent Biologics (Suzhou) Co., Ltd., dated 2025).

T3 sequence (P15692 other isoform, or with tags, fused parts or gaps limits assumed): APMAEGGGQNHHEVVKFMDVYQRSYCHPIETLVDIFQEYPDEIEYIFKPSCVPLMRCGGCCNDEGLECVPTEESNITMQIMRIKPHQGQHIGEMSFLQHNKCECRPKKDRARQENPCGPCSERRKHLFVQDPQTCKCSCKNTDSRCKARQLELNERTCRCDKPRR

The first assay addresses T3, human VEGF165 (R&D) (human, UniProt P15692-4 27-191).
T3 construct: also called VEGFA; human VEGFA
The experiment in a line: BLI (ForteBio), bivalent binding, 30 C. A general note: BLI is a label-free optical method that tracks binding on a fibre tip over time.
As usually defined, the koff is the first-order rate constant of dissociation. As a reminder, the kon is the rate constant with which the complex forms. The low end stands for slow association, the high end for fast association. Molecule B1 displayed a Kd of 0.609 nM, a koff of 0.000293 s⁻¹ and a kon of 481000 M⁻¹ s⁻¹.
In the same order, the values of B2 are 0.668 nM, 0.0003 s⁻¹ and 450000 M⁻¹ s⁻¹.
Regarding B3, the Kd is at most 0.515 nM and the kon came to 389000 M⁻¹ s⁻¹.
In the same order, the values of B4 are at most 0.517 nM and 387000 M⁻¹ s⁻¹.
B5: the Kd worked out at 0.582 nM, the koff was determined as 0.000272 s⁻¹ and the kon turned out to be 468000 M⁻¹ s⁻¹.

A further assay addresses T1, human VEGFC (R&D). Nature of the assay: BLI (ForteBio), bivalent binding, 30 C.
In turn, B1 registered a Kd of 0.885 nM, a koff of 0.000209 s⁻¹ and a kon of 236000 M⁻¹ s⁻¹.
For the molecule B2, the Kd is at most 0.92 nM and the kon was 217000 M⁻¹ s⁻¹.
For the molecule B3, the Kd is at most 1.04 nM and the kon was 193000 M⁻¹ s⁻¹.
In the same order, the values of B4 are at most 1.01 nM and 197000 M⁻¹ s⁻¹.
In turn, B5 returned a Kd of 1.01 nM, a koff of 0.000227 s⁻¹ and a kon of 225000 M⁻¹ s⁻¹.

Another assay has as its target T2, human Ang2 (Beijing Sino Biological). Nature of the assay: BLI (ForteBio), bivalent binding, 30 C.
As to B1, the Kd is 0.783 nM, the koff was determined as 0.00051 s⁻¹ and the kon came out at 652000 M⁻¹ s⁻¹.
In turn, B2 displayed a Kd of 0.475 nM, a koff of 0.000283 s⁻¹ and a kon of 597000 M⁻¹ s⁻¹.
B3 came in with a Kd of at most 0.206 nM and an on-rate constant (kon) of 973000 M⁻¹ s⁻¹.
In the case of B4, the Kd was at most 0.22 nM and the kon came out at 908000 M⁻¹ s⁻¹.
The molecule B5 registered a Kd of 0.705 nM, a koff of 0.000427 s⁻¹ and a kon of 606000 M⁻¹ s⁻¹.

For a further assay, the target named is T3, human VEGF165 (R&D). The experiment in a line: SPR (Biacore T200), CM5 chip, 1:1 binding model. (In SPR one partner is held on a chip, and binding of the other changes the refractive index at the surface.)
For the molecule B3, the Kd is 0.151 nM, the koff came to 6.01e-05 s⁻¹ and the kon came to 399000 M⁻¹ s⁻¹.
On to B4, for which the Kd was 0.203 nM, the koff amounted to 7.75e-05 s⁻¹ and the kon is 382000 M⁻¹ s⁻¹.

The target of another assay is T1, human VEGFC (R&D). Nature of the assay: SPR (Biacore T200), CM5 chip, bivalent binding, 1:1 binding model.
As for B3, the Kd is below 0.234 nM, the koff was below 1e-05 s⁻¹ and the kon was 42800 M⁻¹ s⁻¹.
The like results for B4 were, in that order, below 0.276 nM, below 1e-05 s⁻¹ and 36200 M⁻¹ s⁻¹.

The target in a further assay is T2, human Ang2 (Beijing Sino Biological). The assay is described as above.
Regarding B3, the Kd came out at 0.00932 nM, the koff was determined as 1.76e-05 s⁻¹ and the kon was found to be 1.89e+06 M⁻¹ s⁻¹.
As to B4, the Kd was 0.012 nM, the koff came to 1.92e-05 s⁻¹ and the kon came out at 1.63e+06 M⁻¹ s⁻¹.

The next assay deals with T3, human VEGF165 (R&D). Nature of the assay: BLI (ForteBio), bivalent binding, 30 C; * beyond the limit of detection.
With B3, the koff is at most 0.0002 s⁻¹.
Still for that read-out and setting: then B4, with at most 0.0002 s⁻¹.

The next assay deals with T1, human VEGFC (R&D). The description is as above.
Regarding B2, the koff is at most 0.0002 s⁻¹.
On the same count and under the same terms, then B3, with at most 0.0002 s⁻¹; and B4, with at most 0.0002 s⁻¹.

Another assay deals with T2, human Ang2 (Beijing Sino Biological). The description is as above.
In turn, B3 came in with a koff of at most 0.0002 s⁻¹.
Still for that read-out and setting: then B4, with at most 0.0002 s⁻¹.
